According to US10117953B2, “Antibody drug conjugates” (Novartis AG, priority 2013, dated 2018):

Experiments:
[1] = system: Mo7e cells (SCF-dependent); assay: Mo7e proliferation assay in presence of SCF; type: cell-based, human; settings: 10 ng/ml SCF, 5 days
Description: To evaluate the potential antagonistic properties of the naked antibodies and the ability of the antibody drug conjugates (ADCs) to inhibit the proliferation of a cKIT-expressing cell line, MO7e (DSMZ, Catalog # ACC-104, Braunschweig, Del.) were grown in the presence or absence of cKIT ligand, Stem Cell Factor (SCF), for survival. MO7e cells were grown in either 10 ng/ml human granulocyte-macrophage colony-stimulating factor GM-CSF (R&D Systems Cat#215-GM, Minneapolis, Minn.) or 10 ng/ml human Stem Cell Factor SCF (R&D Systems Cat#255-SC) prior to seeding in 96 well plates (Costar Cat #3904, Corning, Tewksbury, Mass.) at 5000 cells/well in 100 μl dilution medium. A duplicate plate was generated for a day 0 measurement and all plates were incubated in a tissue culture incubator at 37° C. with 5% CO2 overnight. […] Assay plates were shaken gently for 20 min and the resulting luminescence intensity was measured using a Perkin Elmer 1450 Microbeta TriLux® plate reader (Perkin Elmer, Waltham, Mass.). […] Following this incubation period, relative cell viability was determined via the addition of Cell titer Glo reagent as described above. The effect of the ADCs on cell proliferation was calculated using the average of the duplicates as follows: (% Inhibition=(ADC or Ab treated)/(untreated)*100) The % inhibition data was fitted to a 4-parameter logistic equation and IC50 values were determined.

primary human mast cells [2] = assay: Mast cell apoptosis (Caspase-Glo 3/7); type: cell-based; settings: 0.05-100 nM, 1.6 nM rhSCF, 48 h
Description: Primary human mast cells were cultured from peripheral human blood according to the methods described by Saito et al., Nature Protocols 2006; 1(4):2178-2183. […] Following 30 min incubation at RT, luminescence was recorded on the BioTek Synergy plate reader (BioTek, Winooski, Vt.).

primary human mast cells [3] = assay: Mast cell degranulation (β-hexosaminidase release); type: cell-based; settings: 0.05-100 nM, 90 min
Description: Primary human mast cells were cultured from peripheral human blood according to the methods described by Saito et al., (supra). […] Cells were then centrifuged and the supernatants were transferred into 96-well black-walled plates prior to the addition of the β-hexosaminidase substrate. Following 90 min incubation at 37° C., the reaction was stopped by the addition of tris-base (Sigma, Cat # T1503-500G, pH 12, St. Louis, Mo.) and the fluorescence intensity was recorded on the Envision® plate reader.

[4] = system: cKIT phosphorylation in Mo7e and GIST T-1 cells; assay: Western blot for agonistic properties (15 minutes treatment); type: cell-based, human; settings: 5 ug/ml
Description: To evaluate the potential agonistic properties of cKIT ADCs, 2×10^6 of GIST T-1 (kindly provided by Dr. Takahiro Taguchi, Kochi U., Japan) or Mo7e (DSMZ, ACC-104) cells were serum starved overnight at 37° C. with 5% CO2 (DMEM for GIST T-1 and RPMI for Mo7e supplemented with 0.1% FBS) in 6-well plate (NUNC catalog #14067). […] One well was designated as untreated (UT). Cells were harvested in 1 ml PBS. […] Lysates were then spun down for 40 mins at 12,000 rpm at 4° C. 20 μg of each sample was boiled for 10 min at 75° C. and loaded on a 12-well NuPAGEO 4-12% Bis-Tris gel (Life Technologies, NP0322BOX, Carlsbad, Calif.). After protein transfer to membrane blots, membranes were blocked in TBST-5% milk at room temperature for 1 hour and then probed with primary antibodies overnight at 4° C. Blots were washed in TBST (4×5 mins) on the next day. Blots were incubated in the secondary antibody (goat-anti rabbit-HRP 1:30,000, Santa Cruz) for 1 hr at room temperature. Blots were washed in TBST (4×5 mins) and developed. […]

B1: NEG085: anti-cKIT antibody of Table 1; VH SEQ ID NO 82, VL SEQ ID NO 91; derived from 9P3 (antibody, V domains shown)
VH: EVQLVESGGGLVQPGGSLRLSCAASGFAFSGYYMAWVRQAPGKGLEWVANINYPGSSTYYLDSVKGRFTISRDNAKNSLYLQMNSLRAEDTAVYYCARGDYYGTTYWYFDVWGQGTTVTVSS
VL: DIQMTQSPSSLSASVGDRVTITCRASQSISSYLNWYQQKPGKAPKLLIYYTSRLQSGVPSRFSGSGSGTDFTLTISSLQPEDFATYYCQQGRRLWSFGGGTKVEIK
inhibition of cell proliferation [1]: do not have this effect | mast cell apoptosis (primary human mast cells [2]): do not lead to apoptosis of human primary mast cells ex vivo | mast cell degranulation (primary human mast cells [3]): do not induce mast cell degranulation of human primary mast cells ex vivo | downstream signaling (phospho ERK, phospho AKT) [4]: downstream signaling pathways are not affected | phosphorylation of cKIT ([4]; absence of ligand (SCF)): can mediate phosphorylation of cKIT in the absence of ligand (SCF)
